This is an account of results in patent US20160311881A1 (Eli Lilly, published 2016).

Non-standard residues stand in square brackets, D forms with d. No end group written: not given here. Aib = CC(C)(N)C(=O)O

The target of experiment [1] is T1, human glucagon receptor (hGR) (human, UniProt P47871 26-477).
T1 construct: whole, on cells; The cAMP assay used whole cells of the same line
As to the kind of experiment: SPA competition against 125I-labelled glucagon on hGR membranes; Cheng-Prusoff. How it is done:
Plates are sealed, mixed end over end, and read with a MicroBeta® scintillation counter after 12 hours of settling time at room temperature.

The target of experiment [2] is T1, human glucagon receptor (hGR). As to the kind of experiment: cell-based or functional assay.
Experiment [3] has as its target T2, human glucose-dependent insulinotropic peptide receptor (GIP-R) (human, UniProt P48546 22-466).
T2 construct: whole, on cells; The assay used crude plasma membranes of the expressing CHO-S cells; also called human GIP-R; hGIP-R
T2 sequence (looked up): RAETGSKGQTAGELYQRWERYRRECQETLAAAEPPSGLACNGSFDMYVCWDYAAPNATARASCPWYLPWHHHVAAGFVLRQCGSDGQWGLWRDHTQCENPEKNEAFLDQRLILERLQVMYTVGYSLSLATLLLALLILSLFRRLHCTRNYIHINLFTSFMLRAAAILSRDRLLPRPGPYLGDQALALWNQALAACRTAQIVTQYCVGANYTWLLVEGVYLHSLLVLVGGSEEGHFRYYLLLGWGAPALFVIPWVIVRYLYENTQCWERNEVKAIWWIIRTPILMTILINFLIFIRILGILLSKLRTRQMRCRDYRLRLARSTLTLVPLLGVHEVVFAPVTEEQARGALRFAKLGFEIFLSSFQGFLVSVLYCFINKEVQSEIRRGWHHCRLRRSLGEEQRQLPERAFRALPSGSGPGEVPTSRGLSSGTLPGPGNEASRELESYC
As to the kind of experiment: SPA competition against 125I-labelled GIP on human GIP-R membranes; Cheng-Prusoff.

For experiment [4], the target named is T3, mouse glucagon receptor (mGR) (mouse, UniProt Q61606 27-485).
T3 construct: whole, on cells; The assay used crude plasma membranes of the expressing 293HEK cells
T3 sequence (Q61606 27-485): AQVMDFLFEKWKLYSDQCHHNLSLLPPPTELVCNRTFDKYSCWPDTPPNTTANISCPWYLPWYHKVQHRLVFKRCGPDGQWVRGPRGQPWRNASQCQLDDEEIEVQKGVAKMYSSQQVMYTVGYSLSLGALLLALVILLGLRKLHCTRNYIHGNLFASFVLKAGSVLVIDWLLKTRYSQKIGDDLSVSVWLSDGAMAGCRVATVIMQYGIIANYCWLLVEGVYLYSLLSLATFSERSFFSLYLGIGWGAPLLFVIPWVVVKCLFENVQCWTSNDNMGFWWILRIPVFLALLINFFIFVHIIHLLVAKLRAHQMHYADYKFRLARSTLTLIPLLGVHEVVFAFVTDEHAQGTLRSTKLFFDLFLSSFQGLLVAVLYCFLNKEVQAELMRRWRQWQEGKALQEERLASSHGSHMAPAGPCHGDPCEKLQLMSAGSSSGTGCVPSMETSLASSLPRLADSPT
Description: SPA competition against 125I-labelled glucagon on mGR membranes; Cheng-Prusoff.

In experiment [5] the target is T4, human glucagon-like peptide 1 receptor (hGLP-1R) (human, UniProt P43220 24-463).
T4 construct: whole, on cells; The assay used crude plasma membranes of the expressing 293HEK cells
As to the kind of experiment: SPA competition against 125I-labelled GLP-1 amide on hGLP-1R membranes; Cheng-Prusoff.

T1 sequence (P47871 26-477): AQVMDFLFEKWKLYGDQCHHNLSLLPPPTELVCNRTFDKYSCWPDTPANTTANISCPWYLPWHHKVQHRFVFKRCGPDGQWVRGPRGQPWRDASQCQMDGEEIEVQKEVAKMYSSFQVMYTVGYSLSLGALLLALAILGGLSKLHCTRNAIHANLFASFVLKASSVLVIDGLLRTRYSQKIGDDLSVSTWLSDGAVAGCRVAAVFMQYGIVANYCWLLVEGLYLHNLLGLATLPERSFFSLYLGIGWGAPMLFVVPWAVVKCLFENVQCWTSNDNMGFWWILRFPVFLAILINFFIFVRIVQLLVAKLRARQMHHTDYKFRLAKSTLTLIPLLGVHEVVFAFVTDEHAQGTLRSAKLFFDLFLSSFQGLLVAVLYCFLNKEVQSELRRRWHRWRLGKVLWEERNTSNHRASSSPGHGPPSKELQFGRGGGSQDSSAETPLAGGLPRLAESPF

B1: compound of SEQ ID NO: 2 (peptide)
peptide: HAQGTFLSDYSKYLD[Aib]KKAQEFVEWLLKTGPSSGAPPKSK-NH2
modifications: N-terminus assumed
SMILES: CC(C)C[C@H](NC(=O)[C@H](Cc1c[nH]c2ccccc12)NC(=O)[C@H](CCC(=O)O)NC(=O)[C@@H](NC(=O)[C@H](Cc1ccccc1)NC(=O)[C@H](CCC(=O)O)NC(=O)[C@H](CCC(N)=O)NC(=O)[C@H](C)NC(=O)[C@H](CCCCN)NC(=O)[C@H](CCCCN)NC(=O)C(C)(C)NC(=O)[C@H](CC(=O)O)NC(=O)[C@H](CC(C)C)NC(=O)[C@H](Cc1ccc(O)cc1)NC(=O)[C@H](CCCCN)NC(=O)[C@H](CO)NC(=O)[C@H](Cc1ccc(O)cc1)NC(=O)[C@H](CC(=O)O)NC(=O)[C@H](CO)NC(=O)[C@H](CC(C)C)NC(=O)[C@H](Cc1ccccc1)NC(=O)[C@@H](NC(=O)CNC(=O)[C@H](CCC(N)=O)NC(=O)[C@H](C)NC(=O)[C@@H](N)Cc1c[nH]cn1)[C@@H](C)O)C(C)C)C(=O)N[C@@H](CC(C)C)C(=O)N[C@@H](CCCCN)C(=O)N[C@H](C(=O)NCC(=O)N1CCC[C@H]1C(=O)N[C@@H](CO)C(=O)N[C@@H](CO)C(=O)NCC(=O)N[C@@H](C)C(=O)N1CCC[C@H]1C(=O)N1CCC[C@H]1C(=O)N[C@@H](CCCCN)C(=O)N[C@@H](CO)C(=O)N[C@@H](CCCCN)C(N)=O)[C@@H](C)O
notes: Synthetic 40-residue glucagon analog made by solid-phase synthesis on Rink amide resin
As for B1, the inhibition constant (Ki) in experiment [1] stood at 0.397 nM; in experiment [3], 1050 nM; in experiment [4] it was 0.494 nM; in experiment [5], 1220 nM. The “hGR stimulated cAMP functional assay (HTRF), relative EC50” value in experiment [2] worked out at 0.0356 nM.

By Ki is commonly meant the dissociation constant of the complex between target and ligand, obtained from inhibition or displacement. Higher therefore signals weaker binding.
